Data on one molecule can be found in US20100297662A1 (TAO HEALTH LIFE PHARMA, published 2010).

Experiment [1] has as its target T1, N-terminus peptide (Aβ1-5) of the monomeric amyloid β-protein.
T1 construct: Synthetic 5-residue peptide
T1 peptide: DAEFR
The experiment in a line: competitive ELISA with 5-residue Aβ peptides, same method as Example 4. An excerpt:
Which one of Aβ five residue peptides the humanized antibody huASD2 was joined to was examined using the same method as that in Example 4.
(ELISA stands for enzyme-linked immunosorbent assay.)

Experiment [2] deals with T2, amylospheroid 42 (Homo sapiens (Human), UniProt P05067 672-713).
T2 construct: also called 42ASPD; ASPD
T2 sequence (P05067 672-713 limits assumed): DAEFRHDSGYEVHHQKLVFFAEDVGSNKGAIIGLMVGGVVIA
As to the kind of experiment: SPR, ratio of Kd values (40Aβ against 42ASPD). The method, then: (§1) 10 μg/ml amylospheroid (42ASPD), amyloid β monomer (42Aβ, 40Aβ), and Aβ fibril (fibril) prepared from 40Aβ were coupled to CM5 sensor chips of BIACore 3000 (BIAcore) at a concentration of […] in 50 mM acetate buffer. With the use of an antibody solution subjected to two-fold serial dilution from the maximal concentration of 100 nM in a buffer (10 mM HEPES, pH 7.4, 0.15 M NaCl, 3 mM EDTA, 0.005% Surfactant P20), the association rate constant and the dissociation rate constant were determined. With the use of these constants, the dissociation constant was calculated by the following equation.
(§2) Through the same procedure as that in Example 3(3), 42ASPD, 40Aβ (Aβ monomer), and Aβ fibril (42 fibril) prepared from 42Aβ were coupled to CM5 sensor chips, and dissociation constants of the hamster antibody haASD2, the humanized antibody huASD2, and the anti-Aβ antibody 3D6 (US 20030165496 A1) with respect to the above-described proteins were determined. […]
In general terms: In SPR one partner is held on a chip, and binding of the other changes the refractive index at the surface.

In experiment [3] the target is T2, amylospheroid 42. As to the kind of experiment: SPR, ratio of Kd values (42 fibril against 42ASPD). The method, then: as §1, §2
Experiment [4] has as its target T3, monomeric amyloid β40-protein (Aβ1-40).
T3 construct: also called 40Aβ; Aβ1-40 monomer
As to the kind of experiment: SPR (BIAcore), antigen on CM5 chip, antibody in solution. The method, then: as §1
(§3) Through the same procedure as that in Example 3(3), 42ASPD, 40Aβ (Aβ monomer), and Aβ fibril (42 fibril) prepared from 42Aβ were coupled to CM5 sensor chips, and dissociation constants of the hamster antibody haASD2, the humanized antibody huASD2, and the anti-Aβ antibody 3D6 (US 20030165496 A1) with respect to the above-described proteins were determined. The anti-Aβ antibody 3D6 was produced as follows: synthesis genes corresponding to the mouse antibody light chain variable domain 3d6vl.aa and the synthesis gene corresponding to the heavy chain variable domain 3d6vh.aa of the same described in US 20030165496 A1 were produced by a conventional method, and were joined to the light chain constant domain and the heavy chain constant domain of a known mouse antibody, respectively, on the basis of the information of the aforementioned patent; by so doing, it was produced as a mouse IgG2b/κ molecule.

Experiment [5] has as its target T4, Aβ fibril (42 fibril) prepared from 42Aβ (Homo sapiens (Human), UniProt P05067 672-713).
T4 construct: Fibrillar self-assembly of Aβ1-42; also called amyloid fibril
Described as above. The method, then: as §1, §3

Experiment [6] deals with T2, amylospheroid 42. The description is as above. On the procedure:
as §1, §3

T4 sequence (P05067 672-713 limits assumed): as above
T3 sequence (peptide, as listed by the source): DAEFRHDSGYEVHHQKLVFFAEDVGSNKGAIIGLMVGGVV

B1: humanized antibody huASD2 (antibody, V domains shown)
VH: EVQLVESGGGLVKPGGSLRLSCAASGFTFSDYFMSWVRQAPGKGLEWVGGIEIKSYFYATYYFGSVKGRFTISRDDSKNTLYLQMNSLKTEDTAVYYCTTNREVGGLDNWGQGTLVTVSS
VL: QSVLTQPSSLSASPGASASLTCTLRSGISVGGKNIYWYQQKPGSPPQYLLKYSSYSNKQLGPGVPSRFSGSKDASANAGILLISGLQSEDEADYYCSIHESNAYVFGGGTKLTVLG
notes: Humanized from haASD2; expressed from plasmids ASD2RHApG1D200 (heavy chain) and ASD2RLApLN100 (light chain); also called RHA/RLA; ASD2RHA/ASD2RLA
On to B1, for which, in experiment [1], the binding result is on record as “binds”. For the same molecule, the “fold higher affinity with ASPD than with amyloid β-monomer” value in experiment [2] was about 580 times. Moreover, in experiment [3], the “fold higher affinity with ASPD than with amyloid fibril” value is about 6.4 times. Also, the Kd (as a rule, a measure of binding affinity in units of concentration) in experiment [4] worked out at 105 nM; in experiment [5] it was 1.15 nM; in experiment [6], 0.18 nM.
